Results reported in US9885687B2, “Apparatus and method for evaluating characteristics of target molecules” (Dynamic Biosensors GmbH, priority 2010, dated 2018).

Assay: voltage response curve (normalized fluorescence versus static substrate potential) to determine target charge
Assay type: physicochemical
Details: protein bound to probe DNA
Source text: Note that so far no time dependence has been introduced, since the electric field has been kept stationary. However, with the above equation, it is possible to calculate the fluorescence signal for different values of the applied static potential Φ. The corresponding curve is referred to as “voltage response curve” in the following.
Further note that the model so far only accounted for the free probe molecule, i.e. the double-stranded DNA, but not for any target molecule. As long as the stationary state is concerned, i.e. without a time-dependent electrical field, the target molecule will mainly affect the results due to a possible charge thereof. In fact, based on the above understanding of the stochastic behaviour of the probe molecule, the inventors conjectured that it should be possible to qualitatively and quantitatively determine the charge of the target molecule from the voltage response curve.
The corresponding voltage response curve is shown by filled circles, while the voltage response curve of the free DNA is again shown by open diamonds. It can be seen that the voltage response curve in presence of the avidin also differs noticeably from that of the DNA alone.

## avidin: positively charged protein bound to the probe DNA
  charge of the target molecule: positively charged

## streptavidin: negatively charged protein bound to the probe DNA
  charge of the target molecule: negatively charged
